The text below walks through data of patent US8722052B2, “Vaccinia virus protein A46 peptide and use thereof” (priority 2008, dated 2014).

The assay addresses T1, CD4-TLR4 (UniProt O00206+P06332).
T1 construct: forced dimerisation of TLR4 TIR domains in the absence of LPS (by overexpressing the fusion protein CD4-TLR4); CD4 (fusion partner); expressed in transfected cells; host or cells: HEK293_TLR4, transiently transfected with 50 or 100 ng CD4/TLR4-encoding plasmid
T1 sequence (P06332+O00206 with tags, fused parts or gaps): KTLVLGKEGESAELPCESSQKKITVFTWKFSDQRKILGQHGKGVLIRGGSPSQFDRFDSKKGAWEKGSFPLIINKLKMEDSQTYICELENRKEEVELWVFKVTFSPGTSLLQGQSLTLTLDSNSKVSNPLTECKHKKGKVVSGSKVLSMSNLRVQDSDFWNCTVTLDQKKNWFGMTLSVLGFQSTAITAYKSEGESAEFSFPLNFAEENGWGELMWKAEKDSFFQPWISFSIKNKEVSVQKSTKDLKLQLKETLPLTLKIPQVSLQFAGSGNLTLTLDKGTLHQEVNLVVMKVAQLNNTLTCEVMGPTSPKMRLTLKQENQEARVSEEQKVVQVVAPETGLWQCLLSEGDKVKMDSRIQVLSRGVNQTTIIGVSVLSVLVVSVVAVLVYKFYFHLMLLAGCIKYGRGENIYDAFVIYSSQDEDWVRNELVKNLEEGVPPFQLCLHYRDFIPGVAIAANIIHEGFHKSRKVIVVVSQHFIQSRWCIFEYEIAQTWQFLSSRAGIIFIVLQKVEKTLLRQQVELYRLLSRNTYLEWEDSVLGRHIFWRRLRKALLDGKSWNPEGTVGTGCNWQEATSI
Put plainly: ligand-independent NFκB activation by overexpressed CD4-TLR4 in HEK293_TLR4 cells. The format is cell-based. Particulars: 50 or 100 ng CD4/TLR4 plasmid, peptide 5 or 25 μM 2 or 9 hours after transfection. The protocol:
FIGS. 24A and B are bar charts showing the effect of A464 on ligand-independent TLR4 signalling in HEK293 cells. HEK293_TLR4 cells were seeded in 96 well plate (1.5×10^5 cells/ml) 24 hours before transfection with NFκB-luciferase and TK-Renilla reporter gene plasmids. NFκB activation was stimulated by transfecting either 50 or 100 ng of CD4/TLR4-encoding plasmid or by stimulating with 10 ng/ml LPS. The total amount of plasmid DNA transfected into the cells was made up to 230ng by adding pcDNA. A464 (SEQ ID NO. 20) was added to the cells at a concentration of 5 or 25 μM 2 hours (A) or 9 hours (B) after the transfection or LPS-stimulation. Cells were harvested and assayed for NFκB activation by reporter gene assay 24 hours post-transfection. No peptides were added to the control wells (black bars). Data is representative of two experiments, each performed in triplicate and is expressed as mean fold induction±s.d. relative to control levels;
HEK293 cells were transfected using GeneJuice® a proprietary non-toxic transfection reagent. 200 μl/well cells at a density of 1×10^5 cells/ml were seeded the day before transfection. 0.8 μl of GeneJuice was mixed with 9.2 μl of serum-free DMEM (SFM) per transfection and incubated for 5 min at room temperature before adding the appropriate amount of the plasmid DNA. […] Luciferase activity was analysed using a luminometer. […]

Take KYSFKLILAEYRRRRRRRRR [Peptide A464]: the “inhibition of NFκB activated by forced dimerisation of TLR4 TIR domains (CD4-TLR4)” value was “insensitive to inhibition”.
